The text below walks through data of patent US20190153103A1.

Where a chain is given by its changes, count along the chain named.

To fix the notation:
B1: SC91.111 (antibody, V domains shown)
VH: QIQLVQSGPELKKPGETVKISCKASGYTLTTYGMNWVKQAPGKGLKWMGWINTYSGVPAYADDFKGRFAFSLETSASTAYLQINNFKNEDTATYFCARSELRNWYFDVWGTGTTVTVSS
VL: SFVMTQTPKFLLVSAGDRVTITCKASQNMGHNVAWYQQKPGQSPKLLIYYASNRYTGVPDRFTGSGYGTDFTFTISTVQAEDLAVYFCQQDYSSPFTFGSGTKLEIK
B2: SC91.155 (antibody, V domains shown)
VH: B1 VH with L29F, T53S, S75F, F86L, K87R, N88D
VL: B1 VL with M29L, H31N, N32D, K45R, Y50F
B3: SC91.160 (antibody, V domains shown)
VH: B1 VH with L29F, A59S, Y60S, Q82L, F86L
VL: B1 VL with N32D, Y50S, I106M
B4: SC91.149 (antibody, V domains shown)
VH: QVQLLQPGAELVKPGSSVKVSCKASGYTFTNYWMQWVKQRPGQGLEWIGEIDPSDTYTLYNQKFKGKATLTVDTSSSTAYMQLSSLTSEDSAVYYCARFGYYVDYWGQGTTLTVSS
VL: DVVMTQTPLSLPVSLGDQASISCRSSQSLVHSTGNTYFHWYLQKPGQSPELLIYKVSNRFSGVPDRFRGSGSGTDFTLKISRVEAEDLGVYFCSQSTHVPFTFGSGTKLEIK
B5: SC91.172 (antibody, V domains shown)
VH: B4 VH with L5Q, E10D, S16T, V20L, N31S, L59M
VL: B4 VL with F38L, P45A, E50K, R68S
B6: SC91.187 (antibody, V domains shown)
VH: B4 VH with L5Q, A9P, L11F, S16A, V20L, N31S, M34V, T56N, K63N, Y101F
VL: B4 VL with D17E, F38L, E50K, R68S

Sequence of recombinant human BMPR-1A/ALK-3-Fc Chimera (R&D systems Catalog: 315-BR) (human) (P36894 24-152 limits assumed, change not shown): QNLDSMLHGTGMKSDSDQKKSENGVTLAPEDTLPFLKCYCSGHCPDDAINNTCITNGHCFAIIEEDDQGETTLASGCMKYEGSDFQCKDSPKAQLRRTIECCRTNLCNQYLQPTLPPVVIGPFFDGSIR

The experiment has as its target recombinant human BMPR-1A/ALK-3-Fc Chimera (R&D systems Catalog: 315-BR) (human) (UniProt P36894). The experiment in a line: ELISA. In general terms: ELISA stands for enzyme-linked immunosorbent assay.
With B1, the ELISA is 0.077.
With B2, the ELISA came out at 0.059.
To B3 belongs 0.061; to B4, 0.066; to B5, 0.062.
To B6 belongs 0.092.
